From patent publication US12630600B2 (MEDIMMUNE LIMITED, priority 2022, dated 2026)
Starred links: 1 amine or outer side, 2 acyl side, 3 side chain; linkers in the order of their positions; H or OH if unused. Non-standard residues stand in square brackets, D forms with d. Groups on a side chain read outwards from the residue. No end group written: not given here. *: point of attachment. C20 diacid = O=C(O)CCCCCCCCCCCCCCCCCCC(=O)*; C18 diacid = O=C(O)CCCCCCCCCCCCCCCCC(=O)*; γGlu = O=C(O)[C@H](CCC(=O)[*:2])N[*:1]; αMeF = C[C@](N)(Cc1ccccc1)C(=O)O; (PEG)2 = polyethylene glycol 2; AEEA = NCCOCCOCC(=O)O; Aib = CC(C)(N)C(=O)O

Assays:
human glucagon receptor = human glucagon receptor (human, UniProt P47871); test: cell-based or functional assay
human GLP-1 receptor = human GLP-1 receptor (human, UniProt P43220); test: cell-based or functional assay

Row | Binder | hGluc-R EC50 (pM) (human glucagon receptor) | hGLP-1R EC50 (pM) (human GLP-1 receptor)
1 | H[Aib]HGS[αMeF]TSDVSK[αMeF]LDSR[Aib]AK([AEEA-AEEA-γGlu-γGlu-C20 diacid])DFVQ[Aib]IANT-NH2 (N-terminus assumed; SMILES CC[C@H](C)[C@H](NC(=O)C(C)(C)NC(=O)[C@H](CCC(N)=O)NC(=O)[C@@H](NC(=O)[C@H](Cc1ccccc1)NC(=O)[C@H](CC(=O)O)NC(=O)[C@H](CCCCNC(=O)COCCOCCNC(=O)COCCOCCNC(=O)CC[C@H](NC(=O)CC[C@H](NC(=O)CCCCCCCCCCCCCCCCCCC(=O)O)C(=O)O)C(=O)O)NC(=O)[C@H](C)NC(=O)C(C)(C)NC(=O)[C@H](CCCNC(=N)N)NC(=O)[C@H](CO)NC(=O)[C@H](CC(=O)O)NC(=O)[C@H](CC(C)C)NC(=O)[C@](C)(Cc1ccccc1)NC(=O)[C@H](CCCCN)NC(=O)[C@H](CO)NC(=O)[C@@H](NC(=O)[C@H](CC(=O)O)NC(=O)[C@H](CO)NC(=O)[C@@H](NC(=O)[C@](C)(Cc1ccccc1)NC(=O)[C@H](CO)NC(=O)CNC(=O)[C@H](Cc1c[nH]cn1)NC(=O)C(C)(C)NC(=O)[C@@H](N)Cc1c[nH]cn1)[C@@H](C)O)C(C)C)C(C)C)C(=O)N[C@@H](C)C(=O)N[C@@H](CC(N)=O)C(=O)N[C@H](C(N)=O)[C@@H](C)O) [Peptide 221] | 123 pM | 122 pM
2 | H[Aib]HGS[αMeF]TSDVSK[αMeF]LDSRAAK([AEEA-AEEA-γGlu-C18 diacid])D[αMeF]VQ[Aib]IANT-NH2 (N-terminus assumed; SMILES CC[C@H](C)[C@H](NC(=O)C(C)(C)NC(=O)[C@H](CCC(N)=O)NC(=O)[C@@H](NC(=O)[C@](C)(Cc1ccccc1)NC(=O)[C@H](CC(=O)O)NC(=O)[C@H](CCCCNC(=O)COCCOCCNC(=O)COCCOCCNC(=O)CC[C@H](NC(=O)CCCCCCCCCCCCCCCCC(=O)O)C(=O)O)NC(=O)[C@H](C)NC(=O)[C@H](C)NC(=O)[C@H](CCCNC(=N)N)NC(=O)[C@H](CO)NC(=O)[C@H](CC(=O)O)NC(=O)[C@H](CC(C)C)NC(=O)[C@](C)(Cc1ccccc1)NC(=O)[C@H](CCCCN)NC(=O)[C@H](CO)NC(=O)[C@@H](NC(=O)[C@H](CC(=O)O)NC(=O)[C@H](CO)NC(=O)[C@@H](NC(=O)[C@](C)(Cc1ccccc1)NC(=O)[C@H](CO)NC(=O)CNC(=O)[C@H](Cc1c[nH]cn1)NC(=O)C(C)(C)NC(=O)[C@@H](N)Cc1c[nH]cn1)[C@@H](C)O)C(C)C)C(C)C)C(=O)N[C@@H](C)C(=O)N[C@@H](CC(N)=O)C(=O)N[C@H](C(N)=O)[C@@H](C)O) [Peptide 225] | 145 pM | 34.9 pM
3 | H[Aib]HGS[αMeF]TSDVSK[αMeF]LDSRAAK([AEEA-AEEA-γGlu-C18 diacid])D[αMeF]VE[Aib]IANT-NH2 [Peptide 227] | 27.2 pM | 70.5 pM
4 | H[Aib]HGS[αMeF]TSDVSK[αMeF]LDSRAAK([AEEA-AEEA-γGlu-γGlu-C20 diacid])D[αMeF]VQSIANT-NH2 (N-terminus assumed; SMILES CC[C@H](C)[C@H](NC(=O)[C@H](CO)NC(=O)[C@H](CCC(N)=O)NC(=O)[C@@H](NC(=O)[C@](C)(Cc1ccccc1)NC(=O)[C@H](CC(=O)O)NC(=O)[C@H](CCCCNC(=O)COCCOCCNC(=O)COCCOCCNC(=O)CC[C@H](NC(=O)CC[C@H](NC(=O)CCCCCCCCCCCCCCCCCCC(=O)O)C(=O)O)C(=O)O)NC(=O)[C@H](C)NC(=O)[C@H](C)NC(=O)[C@H](CCCNC(=N)N)NC(=O)[C@H](CO)NC(=O)[C@H](CC(=O)O)NC(=O)[C@H](CC(C)C)NC(=O)[C@](C)(Cc1ccccc1)NC(=O)[C@H](CCCCN)NC(=O)[C@H](CO)NC(=O)[C@@H](NC(=O)[C@H](CC(=O)O)NC(=O)[C@H](CO)NC(=O)[C@@H](NC(=O)[C@](C)(Cc1ccccc1)NC(=O)[C@H](CO)NC(=O)CNC(=O)[C@H](Cc1c[nH]cn1)NC(=O)C(C)(C)NC(=O)[C@@H](N)Cc1c[nH]cn1)[C@@H](C)O)C(C)C)C(C)C)C(=O)N[C@@H](C)C(=O)N[C@@H](CC(N)=O)C(=O)N[C@H](C(N)=O)[C@@H](C)O) [Peptide 244] | 420 pM | 143 pM
5 | H[Aib]HGS[αMeF]TSDVSK[αMeF]LDSRAAKDFVQ[Aib]IANT-NH2 (not fully specified (residue 20)) [Peptide 222] | 244 pM | 151 pM
6 | H[Aib]HGS[αMeF]TSDVSK[αMeF]LDSRAAKD[αMeF]IA[Aib]IANT-NH2 (not fully specified (residue 20)) [Peptide 228] | 177 pM | 200 pM
7 | H[Aib]HGS[αMeF]TSDVSK[αMeF]LDSRAAK([AEEA-AEEA-γGlu-γGlu-C20 diacid])D[αMeF]VE[Aib]IANT-NH2 (N-terminus assumed; SMILES CC[C@H](C)[C@H](NC(=O)C(C)(C)NC(=O)[C@H](CCC(=O)O)NC(=O)[C@@H](NC(=O)[C@](C)(Cc1ccccc1)NC(=O)[C@H](CC(=O)O)NC(=O)[C@H](CCCCNC(=O)COCCOCCNC(=O)COCCOCCNC(=O)CC[C@H](NC(=O)CC[C@H](NC(=O)CCCCCCCCCCCCCCCCCCC(=O)O)C(=O)O)C(=O)O)NC(=O)[C@H](C)NC(=O)[C@H](C)NC(=O)[C@H](CCCNC(=N)N)NC(=O)[C@H](CO)NC(=O)[C@H](CC(=O)O)NC(=O)[C@H](CC(C)C)NC(=O)[C@](C)(Cc1ccccc1)NC(=O)[C@H](CCCCN)NC(=O)[C@H](CO)NC(=O)[C@@H](NC(=O)[C@H](CC(=O)O)NC(=O)[C@H](CO)NC(=O)[C@@H](NC(=O)[C@](C)(Cc1ccccc1)NC(=O)[C@H](CO)NC(=O)CNC(=O)[C@H](Cc1c[nH]cn1)NC(=O)C(C)(C)NC(=O)[C@@H](N)Cc1c[nH]cn1)[C@@H](C)O)C(C)C)C(C)C)C(=O)N[C@@H](C)C(=O)N[C@@H](CC(N)=O)C(=O)N[C@H](C(N)=O)[C@@H](C)O) [Peptide 234] | 1290 pM | 68 pM
8 | H[Aib]HGS[αMeF]TSDVSK[αMeF]LDSRAAKD[αMeF]VQ[Aib]IANT-NH2 (not fully specified (residue 20)) [Peptide 230] | 37.1 pM | 170 pM
9 | H[Aib]HGS[αMeF]TSDVSK[αMeF]LDSRAAKD[αMeF]VQ[Aib]IANT-NH2 (not fully specified (residue 20)) [Peptide 232] | 1020 pM | 110 pM

More lines, now with the values ahead:

Row | hGluc-R EC50 (pM) (human glucagon receptor) | hGLP-1R EC50 (pM) (human GLP-1 receptor) | Binder
10 | 125 pM | 102 pM | H[Aib]HGS[αMeF]TSDVSK[αMeF]LDSR[Aib]AK([γGlu-C18 diacid])DFVESIANT-NH2 [Peptide 254]
11 | 53.1 pM | 75.5 pM | H[Aib]HGS[αMeF]TSDVSK[αMeF]LDSR[Aib]AK([AEEA-γGlu-C18 diacid])DFVESIANT-NH2 [Peptide 253]
12 | 557 pM | 320 pM | H[Aib]HGS[αMeF]TSDVSK[αMeF]LDSRAAK([AEEA-AEEA-γGlu-γGlu-C20 diacid])D[αMeF]VESIANT-NH2 (N-terminus assumed; SMILES CC[C@H](C)[C@H](NC(=O)[C@H](CO)NC(=O)[C@H](CCC(=O)O)NC(=O)[C@@H](NC(=O)[C@](C)(Cc1ccccc1)NC(=O)[C@H](CC(=O)O)NC(=O)[C@H](CCCCNC(=O)COCCOCCNC(=O)COCCOCCNC(=O)CC[C@H](NC(=O)CC[C@H](NC(=O)CCCCCCCCCCCCCCCCCCC(=O)O)C(=O)O)C(=O)O)NC(=O)[C@H](C)NC(=O)[C@H](C)NC(=O)[C@H](CCCNC(=N)N)NC(=O)[C@H](CO)NC(=O)[C@H](CC(=O)O)NC(=O)[C@H](CC(C)C)NC(=O)[C@](C)(Cc1ccccc1)NC(=O)[C@H](CCCCN)NC(=O)[C@H](CO)NC(=O)[C@@H](NC(=O)[C@H](CC(=O)O)NC(=O)[C@H](CO)NC(=O)[C@@H](NC(=O)[C@](C)(Cc1ccccc1)NC(=O)[C@H](CO)NC(=O)CNC(=O)[C@H](Cc1c[nH]cn1)NC(=O)C(C)(C)NC(=O)[C@@H](N)Cc1c[nH]cn1)[C@@H](C)O)C(C)C)C(C)C)C(=O)N[C@@H](C)C(=O)N[C@@H](CC(N)=O)C(=O)N[C@H](C(N)=O)[C@@H](C)O) [Peptide 246]
13 | 76.9 pM | 33.1 pM | H[Aib]HGS[αMeF]TSDVSK[αMeF]LDSRAAK([AEEA-γGlu-AEEA-γGlu-C18 diacid])D[αMeF]VQ[Aib]IANT-NH2 [Peptide 260]
14 | 93.1 pM | 34 pM | H[Aib]HGS[αMeF]TSDVSK[αMeF]LDSRAAK([(PEG)2-(PEG)2-γGlu-γGlu-C18 diacid])D[αMeF]VQ[Aib]IANT-NH2 [Peptide 258]
15 | 248 pM | 79.8 pM | H[Aib]HGS[αMeF]TSDVSK[αMeF]LDSR[Aib]AK([AEEA-AEEA-γGlu-C18 diacid])DFVESIANT-NH2 [Peptide 251]
16 | 34.8 pM | 19.1 pM | H[Aib]HGS[αMeF]TSDVSK[αMeF]LDSRAAK([AEEA-γGlu-AEEA-C18 diacid])D[αMeF]VQ[Aib]IANT-NH2 [Peptide 259]
17 | 1310 pM | 346 pM | H[Aib]HGS[αMeF]TSDVSK[αMeF]LDSQAAK([AEEA-AEEA-γGlu-γGlu-C20 diacid])D[αMeF]VQ[Aib]IANT-NH2 [Peptide 256]
